The values that follow come from patent US7098013B2, “Polypeptide having α-isomaltosyl-transferase activity” (Kabushiki Kaisha Hayashibara Seibutsu Kagaku Kenkyujo, priority 2000, dated 2006).

A short description of data set [1]: Optimum temperature of the enzyme activity. In kind it is biochemical. Particulars: incubated for 30 min, pH 6.0. The procedure:
The activity of α-isomaltosyl-transferring enzyme was measured by the following assay: A substrate solution was prepared by dissolving panose in 100 mM acetate buffer (pH 6.0) to give a concentration of 2% (w/v). A reaction mixture was prepared by mixing 0.5 ml of the substrate solution and 0.5 ml of an enzyme solution, and incubated at 35° C. for 30 min. After stopping the reaction by boiling for 10 min, the amount of glucose formed in the reaction mixture was determined by the glucose oxidase-peroxidase method. One unit of α-isomaltosyl-transferring activity was defined as the amount of the enzyme that forms one μmole of glucose per minute under the above conditions.
A purified specimen of polypeptide having α-isomaltosyl-transferring activity, obtained by the method in Experiment 3-2, was acted on the substrate in 20 mM acetate buffer (pH6.0) at various temperatures for 30 min, according to the assay method of α-isomaltosyl-transferring enzyme disclosed in Experiment 1-1.

Data set [2] in a line: Thermal stability of the polypeptide. In kind it is physicochemical. Particulars: 20 mM acetate buffer (pH 6.0), 60 min. How it is done:
A purified specimen of polypeptide having α-isomaltosyl-transferring activity, obtained by the method in Experiment 3-2, was incubated in 20 mM acetate buffer (pH6.0) at various temperatures for 60 min according to the assay method of α-isomaltosyl-transferring enzyme disclosed in Experiment 1-1.

B1: polypeptide having α-isomaltosyl-transferring enzyme activity from Bacillus globisporus C11: purified α-isomaltosyl-transferring enzyme from Bacillus globisporus C11 (FERM BP-7144), contains the … (protein, listed as Bacillus globisporus)
chain: IDGVYHAPYGIDDLYEIQATERSPRDPVAGDTVYIKITTWPIESGQTAWVTWTKNGVNQAAVGAAFKYNSGNNTYWEANLGTFAKGDVISYTVHGNKDGANEKVIGPFTFTVTGWESVSSISSITDNTNRVVLNAVPNTGTLKPKINLSFTADDVLRVQVSPTGTGTLSSGLSNYTVSDTASTTWLTTSKLKVKVDKNPFKLSVYKPDGTTLIARQYDSTTNRNIAWLTNGSTIIDKVEDHFYSPASEEFFGFGEHYNNFRKRGNDVDTYVFNQYKNQNDRTYMAIPFMLNSSGYGIFVNSTYYSKFRLATERTDMFSFTADTGGSAASMLDYYFIYGNDLKNVVSNYANITGKPTALPKWAFGLWMSANEWDRQTKVNTAINNANSNNIPATAVVLEQWSDENTFYIFNDATYTPKTGSAAHAYTDFTFPTSGRWTDPKAMADNVHNNGMKLVLWQVPIQKWTSTPYTQKDNDEAYMTAQNYAVGNGSGGQYRIPSGQWFENSLLLDFTNTAAKNWWMSKRAYLFDGVGIDGFKTDGGEMVWGRSNTFSNGKKGNEMRNQYPNEYVKAYNEYARSKKADAVSFSRSGTQGAQANQIFWSGDQESTFGAFQQAVNAGLTASMSGVPYWSWDMAGFTGTYPTAELYKRATEMAAFAPVMQFHSESNGSSGINEERSPWNAQARTGDNTIISHFAKYTNTRMNLLPYIYSEAKMASDTGVPMMRAMALEYPKDTNTYGLTQQYMFGGNLLIAPVMNQGETNKSIYLPQGDWIDFWFGAQRPGGRTISYTAGIDDLPVFVKFGSILPMNLNAQYQVGGTIGNSLTSYTNLAFRIYPLGTTTYDWNDDIGGSVKTITSTEQYGLNKETVTVPAINSTKTLQVFTTKPSSVTVGGSVMTEYSTLTALTGASTGWYYDTVQKFTYVKLGSSASAQSVVLNGVNKVEYEAEFGVQSGVSTNTNHAGYTGTGFVDGFETLGDNVAFDVSVKAAGTYTMKVRYSSGAGNGSRAIYVNNTKVTDLALPQTTSWDTWGTATFSVSLSTGLNTVKVSYDGTSSLGINFDNIAIVEQ
As for B1, the optimum temperature entry in data set [1] is “about 50 °C”. In addition, the thermal stability result in data set [2] is “up to 40 °C”.
